T1: DP, tandem DUF283-PAZ domains of human Dicer (605-1068), bacterially expressed
T1 chain: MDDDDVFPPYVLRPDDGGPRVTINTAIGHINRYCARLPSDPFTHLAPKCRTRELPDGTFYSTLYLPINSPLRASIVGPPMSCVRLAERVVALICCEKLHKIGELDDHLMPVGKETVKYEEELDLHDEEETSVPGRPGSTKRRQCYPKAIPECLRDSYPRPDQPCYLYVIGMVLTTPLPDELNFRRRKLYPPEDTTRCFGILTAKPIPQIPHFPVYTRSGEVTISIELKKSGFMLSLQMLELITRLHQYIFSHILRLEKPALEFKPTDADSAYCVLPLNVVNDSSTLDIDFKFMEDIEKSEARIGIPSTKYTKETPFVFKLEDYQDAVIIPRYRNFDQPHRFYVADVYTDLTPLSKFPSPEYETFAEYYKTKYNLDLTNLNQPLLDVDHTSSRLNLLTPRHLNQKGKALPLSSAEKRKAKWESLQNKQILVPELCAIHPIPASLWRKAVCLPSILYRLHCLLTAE

T2: hDcr-N, N-terminal fragment of human Dicer (1-1068; ATPase/hel, DUF283 and PAZ domains), co-expressed in Sf9 … (human, UniProt Q9UPY3 1-1068)
T2 construct: Co-expressed with hDcr-C in baculovirus-infected Sf9 cells; It could not be expressed alone
T2 sequence: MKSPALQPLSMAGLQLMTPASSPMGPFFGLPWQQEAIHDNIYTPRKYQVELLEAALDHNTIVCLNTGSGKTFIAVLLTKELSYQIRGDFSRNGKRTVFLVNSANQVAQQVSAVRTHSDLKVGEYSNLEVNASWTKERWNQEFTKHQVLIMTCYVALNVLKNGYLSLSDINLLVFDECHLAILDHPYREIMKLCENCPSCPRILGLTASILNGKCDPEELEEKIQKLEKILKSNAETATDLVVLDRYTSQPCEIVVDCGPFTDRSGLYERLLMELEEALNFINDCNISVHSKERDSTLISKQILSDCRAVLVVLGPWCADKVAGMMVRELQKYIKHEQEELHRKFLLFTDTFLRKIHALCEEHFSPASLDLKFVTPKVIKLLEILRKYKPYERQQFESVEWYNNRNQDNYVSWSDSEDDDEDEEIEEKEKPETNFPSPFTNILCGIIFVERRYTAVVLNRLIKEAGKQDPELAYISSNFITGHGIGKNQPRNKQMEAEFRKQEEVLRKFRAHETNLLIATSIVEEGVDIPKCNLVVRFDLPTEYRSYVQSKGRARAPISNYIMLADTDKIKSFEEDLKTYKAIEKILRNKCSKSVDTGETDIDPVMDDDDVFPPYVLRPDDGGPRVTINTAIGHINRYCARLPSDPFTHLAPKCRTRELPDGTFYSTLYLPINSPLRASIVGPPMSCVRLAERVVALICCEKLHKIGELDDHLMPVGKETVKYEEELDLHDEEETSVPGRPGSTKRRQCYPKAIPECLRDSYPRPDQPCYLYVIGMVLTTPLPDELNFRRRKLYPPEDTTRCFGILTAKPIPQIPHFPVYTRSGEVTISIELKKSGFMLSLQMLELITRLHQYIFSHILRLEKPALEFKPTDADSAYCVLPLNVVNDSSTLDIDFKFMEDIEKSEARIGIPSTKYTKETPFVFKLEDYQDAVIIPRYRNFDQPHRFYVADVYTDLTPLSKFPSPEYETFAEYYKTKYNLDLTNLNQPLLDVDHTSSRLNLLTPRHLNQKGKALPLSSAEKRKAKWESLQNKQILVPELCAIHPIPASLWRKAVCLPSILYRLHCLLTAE

T3: MBP-ATPase/hel, ATPase/helicase domain of human Dicer (1-604) fused with maltose-binding protein, bacterially … (human, UniProt Q9UPY3 1-604)
T3 construct: not shown: the His6 tag and the linker/TEV site lette
T3 sequence: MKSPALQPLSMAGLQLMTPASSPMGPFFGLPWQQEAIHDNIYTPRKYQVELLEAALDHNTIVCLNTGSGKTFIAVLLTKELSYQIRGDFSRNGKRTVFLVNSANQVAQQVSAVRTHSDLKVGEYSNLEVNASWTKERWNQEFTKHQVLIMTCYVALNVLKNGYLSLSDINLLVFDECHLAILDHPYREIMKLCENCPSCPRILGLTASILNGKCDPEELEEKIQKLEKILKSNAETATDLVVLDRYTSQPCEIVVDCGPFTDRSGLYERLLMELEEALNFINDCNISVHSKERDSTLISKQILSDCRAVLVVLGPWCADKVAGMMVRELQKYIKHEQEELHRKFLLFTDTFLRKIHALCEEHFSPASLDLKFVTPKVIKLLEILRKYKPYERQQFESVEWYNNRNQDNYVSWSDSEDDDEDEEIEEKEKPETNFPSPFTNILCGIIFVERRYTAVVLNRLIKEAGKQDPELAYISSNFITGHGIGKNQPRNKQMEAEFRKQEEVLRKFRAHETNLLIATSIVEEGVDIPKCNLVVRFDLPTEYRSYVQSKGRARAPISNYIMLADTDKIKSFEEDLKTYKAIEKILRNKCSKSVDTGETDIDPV

B1: hDcr-C, C-terminal fragment of human Dicer (1235-1922; two RNase III domains and C-terminal dsRBD), co-expressed in Sf9 cells (enzyme)
chain: CTLLSNKYLDGNANKSTSDGSPVMAVMPGTTDTIQVLKGRMDSEQSPSIGYSSRTLGPNPGLILQALTLSNASDGFNLERLEMLGDSFLKHAITTYLFCTYPDAHEGRLSYMRSKKVSNCNLYRLGKKKGLPSRMVVSIFDPPVNWLPPGYVVNQDKSNTDKWEKDEMTKDCMLANGKLDEDYEEEDEEEESLMWRAPKEEADYEDDFLEYDQEHIRFIDNMLMGSGAFVKKISLSPFSTTDSAYEWKMPKKSSLGSMPFSSDFEDFDYSSWDAMCYLDPSKAVEEDDFVVGFWNPSEENCGVDTGKQSISYDLHTEQCIADKSIADCVEALLGCYLTSCGERAAQLFLCSLGLKVLPVIKRTDREKALCPTRENFNSQQKNLSVSCAAASVASSRSSVLKDSEYGCLKIPPRCMFDHPDADKTLNHLISGFENFEKKINYRFKNKAYLLQAFTHASYHYNTITDCYQRLEFLGDAILDYLITKHLYEDPRQHSPGVLTDLRSALVNNTIFASLAVKYDYHKYFKAVSPELFHVIDDFVQFQLEKNEMQGMDSELRRSEEDEEKEEDIEVPKAMGDIFESLAGAIYMDSGMSLETVWQVYYPMMRPLIEKFSANVPRSPVRELLEMEPETAKFSPAERTYDGKVRVTVEVVGKGKFKGVGRSYRIAKSAAARRALRSLKANQPQVPNS
B2: human TAR-RNA binding protein (hTRBP2), recombinant (other, UniProt Q15633 1-366, looked up)
chain: MSEEEQGSGTTTGCGLPSIEQMLAANPGKTPISLLQEYGTRIGKTPVYDLLKAEGQAHQPNFTFRVTVGDTSCTGQGPSKKAAKHKAAEVALKHLKGGSMLEPALEDSSSFSPLDSSLPEDIPVFTAAAAATPVPSVVLTRSPPMELQPPVSPQQSECNPVGALQELVVQKGWRLPEYTVTQESGPAHRKEFTMTCRVERFIEIGSGTSKKLAKRNAAAKMLLRVHTVPLDARDGNEVEPDDDHFSIGVGSRLDGLRNRGPGCTWDSLRNSVGEKILSLRSCSLGSLGALGPACCRVLSELSEEQAFHVSYLDIEELSLSGLCQCLVELSTQPATVCHGSATTREAARGEAARRALQYLKIMAGSK
notes: Purified recombinant protein

Experiments:
[1] = molecular target: T1, DP, tandem DUF283-PAZ domains of human …
[2] = molecular target: T2, hDcr-N, N-terminal fragment of human …; assay: co-expression in Sf9 cells, co-purification
[3] = molecular target: T3, MBP-ATPase/hel, ATPase/helicase domain …; assay: size exclusion and pull-down (brief figure description)
Experimental: Six microgram of both of hTRBP2 and mbp-ATPase/hel-HA proteins were mixed with 15 μl of anti-hemagglutinin (anti-HA) antibody-coupled agarose beads in 1× phosphate-buffered saline (PBS) buffer (Sigma, Saint Louis, Mo.) and incubated in cold room and rocked 60 min. The mixture was pelleted by 30 sec spin at 10,000×g and then washed once with 1×PBS and followed by 5 times with the washing buffer of 20 mM Hepes (pH 7.5), 250 mM NaCl, 1% glycerol and 0.1% Triton X-100. After the last wash, the pellet was boiled for 3 min in 1.2×SDS protein loading buffer. As a control, hTRBP2 alone was also processed in the same way.
ATPase/Helicase domain of hDcr interacts with TRBP. A. Schematic representation of bacterially expressed ATPase/hel domain tagged with MBP. B. The interaction of MBP-ATPase/hel fragment with hTRBP2. A pre-incubated mixture of the MBP-ATPase/hel fragment with 3-fold excess of hTRBP2 was fractionated with a Superdex 200 size-exclusion column (top panel, elution profile). […] The excess hTRBP2 elutes in the second peak. C. MBP-ATPase/hel can pull-down hTRBP2. The MBP-ATPase/hel-domain was purified with a C-terminal hemagglutinin (HA) epitope tag. The two purified proteins (30 pmol of hDcr and 130 pmol of hTRBP2) were incubated on ice with anti-HA antibody agarose beads (Sigma-Aldrich) for 60 min prior to several washes. The bound proteins are eluted via boiling with 1.2×SDS buffer. […]

Row | Binder | RNA cleavage assay (37ab dsRNA), size pattern of the products [1] | binding result [2] | binding result [3]
1 | B1 | addition of the DP polypeptide to the hDcr-C cleavage reaction led to RNA products similar to those produced by full-length Dicer | binds | –
2 | B2 | – | – | binds

Reference: patent US20130196383A1, “Method of Producing Dicer” (published 2013)
